Assay results from the supplement of paper PMC12764529.
± gives the half width of the 95% confidence interval.

Assays:
[1] = folding stability dG unfold from trypsin proteolysis; higher = more stable
Procedure, shortened: (§1)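 Bayesian fitting of sequencing counts gave K50 for each design. Unfolding free energy followed by setting this against a sequence-predicted unfolded-state K50 and a shared folded-state K50, either per protease or with trypsin and chymotrypsin combined. The designs, under 80 residues and lacking cysteine, were digested in a PA-tagged cDNA display format at 11 threefold-diluted protease concentrations and without protease, and only those with AlphaFold2 dimer inter-PAE above 15 were kept.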

[2] = folding stability dG unfold from chymotrypsin proteolysis; higher = more stable
Procedure, shortened: as §1

[3] = folding stability dG unfold (combined trypsin and chymotrypsin); higher = more stable
Procedure, shortened: as §1

Sequence | folding stability dG unfold [1] | folding stability dG unfold [2] | folding stability dG unfold [3]
SAGGSGMMLEEGVGVDPTTGELHRFTYLREPERPPVEVTVTTTTVVYTTPDGTTVTVTTTTTLEGGSAGGSA [r2_326_JUSTAS] | 0.671 ± 0.047 kcal/mol | 0.786 ± 0.27 kcal/mol | 0.789 ± 0.13 kcal/mol
SAGGSGMTTTFSKEVSSKEEAEKIFKRGFPDLNAKVTKFDPKKGTVEIELTFPDGKKSKATAPIKKSAGGSA [r2_201_JUSTAS] | -0.569 ± 0.58 kcal/mol | 0.0996 ± 0.5 kcal/mol | -0.225 ± 0.37 kcal/mol
SAGGSGSTTPETRTEPSPGGTTTEVRTDVHTLPDAETVEITVTRGGRTITLTASPAEAATLRVTPGASAGGS [r8_257_JUSTAS] | -0.555 ± 0.61 kcal/mol | -0.614 ± 0.62 kcal/mol | -0.436 ± 0.51 kcal/mol
SAGGSIELPLEEGSTAEVELELRVPFYRLDANGRPVAPEERTLRIRARFTRLPDGRVLVEVEVEVESAGGSA [r2_154_TrMRF] | 4.46 ± 0.17 kcal/mol | 5.24 ± 0.1 kcal/mol | 4.98 ± 0.13 kcal/mol
SAGGSIPADTVATLTLPDRDLAVRVELVDGTPRYLVTGPDGTPVGTLTPEEFAAFVAALPADARLDLRSAGG [r13_657_JUSTAS] | 0.7 ± 0.032 kcal/mol | 1.32 ± 0.081 kcal/mol | 1.15 ± 0.068 kcal/mol
SAGGSIPLSDIKDIEIHPWRHPNNNYPMYRIRIDNGRDMVIFPGAIFEFDPDDGKIEEVKPMPFGDSAGGSA [r2_374_TrROS] | 0.165 ± 0.22 kcal/mol | 0.222 ± 0.22 kcal/mol | 0.238 ± 0.14 kcal/mol
SAGGSIPPGARVETLEVVTSSSSDGTVTTTTLTRVTSPEDSVSERTRTTTDPVVPPPATPTNPVSLASAGGS [r8_90_JUSTAS] | -0.0164 ± 0.079 kcal/mol | 0.804 ± 0.06 kcal/mol | 0.507 ± 0.053 kcal/mol
SAGGSISIPVYSPEDVIEAIEFIERYLREKGFPENEEATRIIVERLEDGRYRVIIEYPTRTIIIDDSAGGSA [r2_120_TrMRF] | 2.9 ± 0.049 kcal/mol | 3.09 ± 0.033 kcal/mol | 3.01 ± 0.067 kcal/mol
SAGGSITKTLGTEEKGDKTITYSVTTSPEGKITFTTTTKTPSGSGTSTTTTTTTTPLAGLPLPPLGGSAGGS [r8_458_JUSTAS] | 0.473 ± 0.042 kcal/mol | 0.831 ± 0.18 kcal/mol | 0.717 ± 0.19 kcal/mol
SAGGSKDLEIKITKIKEWDPPNGKQTIRIPIEVYDPENGKPRPPAEELADELQKRFPGMPIKVEPVSAGGSA [r2_27_TrROS] | -0.416 ± 0.29 kcal/mol | 0.863 ± 0.028 kcal/mol | 0.441 ± 0.14 kcal/mol
SAGGSKEKFLTIEHPDYVIKAYVDYPKEGKLRVRIEIYDKNGKLLKTIEVEAYSPEEVLEFLEKAASAGGSA [r2_82_TrMRF] | 2.48 ± 0.1 kcal/mol | 3.28 ± 0.13 kcal/mol | 3.05 ± 0.14 kcal/mol
SAGGSKELKPGDIITFPKSVSEEEIKEKVKELMEKYGIKGIISIEKKSPNSYIVKIEYPDGNPLAISAGGSA [r2_168_JUSTAS] | 2.1 ± 0.074 kcal/mol | 1.34 ± 0.081 kcal/mol | 1.72 ± 0.15 kcal/mol
SAGGSKERTYRVLIRNPDGELEEIEVSEEELEALLSLPPSATVRIVTEDGEEKTVTINVEKVELKESAGGSA [r2_222_TrROS_Hall] | 1.74 ± 0.11 kcal/mol | 3.48 ± 0.067 kcal/mol | 3.07 ± 0.17 kcal/mol
SAGGSKFEVEKLPDNTYRFKVPNENGETLEITVEKLPDGAILVTHPSNPKPVLFPASTTIEDLLKKSAGGSA [r2_338_TrMRF] | 1.29 ± 0.029 kcal/mol | 2.22 ± 0.029 kcal/mol | 1.95 ± 0.032 kcal/mol
SAGGSKGKAPVKVRFLFLEDGKVVAEAEVEFEVEVPIPPVPPVFVPEEARKALENGDIEKALKLLGSAGGSA [r2_196_TrMRF] | 0.827 ± 0.036 kcal/mol | 1.58 ± 0.035 kcal/mol | 1.36 ± 0.13 kcal/mol
SAGGSKKKIEKIEIEIEIKNKDGKTYKIKAEIEKVELKDGKVAKIRLEIYNENGEKIAEFEFEIKISAGGSA [r2_215_TrROS_Hall] | 2.08 ± 0.15 kcal/mol | 4.03 ± 0.19 kcal/mol | 3.61 ± 0.23 kcal/mol
SAGGSKKKKPEKPPVVLIKITVEETGKEITIPLEELRNMSAEELAKRIAEELRERYPGLKVRVEIVSAGGSA [r2_392_TrROS_Hall] | 1.49 ± 0.071 kcal/mol | 2.28 ± 0.11 kcal/mol | 2.07 ± 0.17 kcal/mol
SAGGSKKTIVIPVPPGMSVEQIAAELKAKLEELFPDLKVEVVEVKPDGYVKIKIDGKLILIKFPKPSAGGSA [r2_102_TrROS_Hall] | 1.6 ± 0.049 kcal/mol | 3.18 ± 0.042 kcal/mol | 2.77 ± 0.063 kcal/mol

Sequence | folding stability dG unfold [1] | folding stability dG unfold [2] | folding stability dG unfold [3]
SAGGSKKVDIKPGKVKKVEVKTLPNGKKLLVLYFPLEDGKEKVVVISSDFKTPEEALEAAYKQLGKSAGGSA [r2_347_TrMRF] | 1.02 ± 0.049 kcal/mol | 1.21 ± 0.066 kcal/mol | 1.23 ± 0.21 kcal/mol
SAGGSKKVKIKITKIEIFPNGTIKVTVKNEDGSEVTITITKNKDGKYKIKIKNKKTKKIFEFEIPLSAGGSA [r2_361_TrROS_Hall] | 2.22 ± 0.089 kcal/mol | 3.1 ± 0.06 kcal/mol | 2.8 ± 0.22 kcal/mol
SAGGSKLPKNSKVLIIDLGAPKGIKPNDKVKIPKELIKKIKEKNPNVKFYKEYNIGNKTYIFIVIDSAGGSA [r2_383_TrMRF] | 1.31 ± 0.067 kcal/mol | 2.39 ± 0.059 kcal/mol | 1.96 ± 0.12 kcal/mol
SAGGSKPKTVEITLEVDGKKVKITVTEKDGKLTVTITFPDGTKLTIELPENMSIEEALKKALEALKSAGGSA [r2_92_TrROS_Hall] | 3.28 ± 0.13 kcal/mol | 2.4 ± 0.062 kcal/mol | 2.87 ± 0.096 kcal/mol
SAGGSKTIEVEIKVPPGMTPEEVAKKLAEELKKAGIEVKVVKVEYDEEKGTVRITLDDGSEVELKVSAGGSA [r2_242_TrROS_Hall] | 1.35 ± 0.093 kcal/mol | 1.98 ± 0.1 kcal/mol | 1.58 ± 0.39 kcal/mol
SAGGSKTVELEIEIDGKLIKIRVEENENGELTVRIEIYDKNGKKVKEIEIKVKSLEEALKALEKLLSAGGSA [r2_82_TrROS_Hall] | 3.21 ± 0.12 kcal/mol | 3.22 ± 0.12 kcal/mol | 3.22 ± 0.12 kcal/mol
SAGGSKVEIWIRFGDYWIRITVEPKPNGRKKVSVEVYNPNGEPMWSITFEIDPDGKIKDIDITPMPSAGGSA [r2_260_TrROS] | 4.53 ± 0.23 kcal/mol | 5.03 ± 0.14 kcal/mol | 5.01 ± 0.13 kcal/mol
SAGGSKWIPVSIWFPKGMTPEKVEEIARELVEAGYRIENIEVEREPDPNGREWYRVDITFRPPGDLSAGGSA [r2_442_TrROS] | 2.71 ± 0.085 kcal/mol | 3.01 ± 0.089 kcal/mol | 2.83 ± 0.18 kcal/mol
SAGGSKWRMYEITLELGDKPVKITVYYMDGNYSVAIKFPPGRKVDIPFDGPMSPEDAAKKALEALGSAGGSA [r2_92_TrROS] | 2.34 ± 0.056 kcal/mol | 3.579 ± 0.026 kcal/mol | 3.24 ± 0.095 kcal/mol
SAGGSKYPIEVTDPENGNPVLLEDVESLASVTQEEPGDGRSLYTATVPETGEPVFLTSPEKLAAALSSAGGS [r8_206_JUSTAS] | 0.593 ± 0.035 kcal/mol | 0.0753 ± 0.19 kcal/mol | 0.384 ± 0.11 kcal/mol
SAGGSLIEKIAKEAGIKVEISKEETNGSPVLTITITKGDKNIVFKDDGKDPEKLVKELAKKIGIKPISAGGS [r8_226_JUSTAS] | 0.499 ± 0.043 kcal/mol | 0.414 ± 0.086 kcal/mol | 0.422 ± 0.19 kcal/mol
SAGGSLPLPPGATVETTEVDPANPDRTYKTTTTFTPVPGNTLLATPVVTDPETGTTTTTTTTVPLALGSAGG [r13_268_JUSTAS] | 0.321 ± 0.054 kcal/mol | 0.809 ± 0.15 kcal/mol | 0.64 ± 0.13 kcal/mol
SAGGSLPPGQWIFMIQLEIEPPNGNTWPFNIMVPPDNVEEQAKEIADRLRENGLKVKIEITDVMPVSAGGSA [r2_274_TrROS] | 2.22 ± 0.13 kcal/mol | 3.5 ± 0.083 kcal/mol | 3.09 ± 0.13 kcal/mol
SAGGSLPPSTVIESEIVIEIEIENNISGIPGKTEKAFIIIKVTVTTDENGNLSSSVEIEIIPAKDLSAGGSA [r2_448_TrMRF] | 3.22 ± 0.23 kcal/mol | 2.97 ± 0.21 kcal/mol | 3.26 ± 0.41 kcal/mol
SAGGSLSNVTPLGTTPVTLPGSTVTITVYKSDTPGVVYVKIEYPETGVEKVRVLSPEELEKVIEELLSAGGS [r8_469_JUSTAS] | 2.69 ± 0.071 kcal/mol | 3.199 ± 0.025 kcal/mol | 3.07 ± 0.054 kcal/mol
SAGGSLVEKVKAIFAEKGIPVNPITTTPTSFTAKTPTGPFTVELPGNSTVTVSPDGTATVTVPPGLSSAGGS [r8_297_JUSTAS] | 1.41 ± 0.16 kcal/mol | 2.2 ± 0.066 kcal/mol | 1.99 ± 0.21 kcal/mol
SAGGSLVYRLVLRRGDKVLVVTAPFDSPSDALAAASRLLPGGAELLLEFFDPRTGEPLGTVPFRSVSAGGSA [r2_390_TrMRF] | 2.257 ± 0.015 kcal/mol | 2.06 ± 0.039 kcal/mol | 2.22 ± 0.034 kcal/mol
SAGGSMAEPGPMNMTLSFDGIEKEFSVEITVRKRPDGTEVLELRLPDGVPLTLPAAEAAKIVDMSGSAGGSA [r2_297_JUSTAS] | 0.549 ± 0.023 kcal/mol | 0.879 ± 0.036 kcal/mol | 0.764 ± 0.051 kcal/mol
